Measured values from the supplement of paper PMC7877785.
± gives the uncertainty stated by the source.

Experiment: self-splicing fitness, log relative to wild type (ln ratio); higher = more splicing; Tetrahymena group I intron in knt gene, E. coli kanamycin selection, DiMSum; sequences stand for … in CUCUCU…GGAGGGAAAAGUUAUCAGGCAUGCACCUGGUAGCUAGUCUUUAAACCAAUAGAUUGCAUCGGUUUAAAAGGCAAGACCGUCAAAUUGCGGGAAAGGGGUCAACAGCCGUUCAGUACCAAGUCUCAGGGGAAACUUUGAGAUGGCCUUGCAAAGGGUAUGGUAAUAAGCUGACGGACAUGGUCCUAACCACGCAGCCAAGUCCUAAGUCAACAGAUCUUCUGUUGAUAUGGAUGCAGUUCACAGACUAAAUGUCGGUCGGGGAAGAUGUAUUCUUCUCAUAAGAUAUAGUCGGACCUCUCCUUAAUGGGAGCUAGCGGAUGAAGUGAUGCAACACUGGAGCCGCUGGGAACUAAUUUGUAUGCGAAAGUAUAUUGAUUAGUUUUGGAGUACUCGUGGUCG
In short: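 The eight P1ex-region nucleotides of an intron in the knt kanamycin-resistance gene on pET-22b(+) were all randomised and the library put into E. coli BL21(DE3). Six replicate transformations were grown overnight at 37°C or 30°C on LB agar with or without 25 μg/mL kanamycin, together with 100 μg/mL carbenicillin, 50 μM IPTG and 0.2% rhamnose. Colonies were pooled and amplicon-sequenced on an Illumina HiSeq 2500. Fitness from DiMSum is the error-weighted combination of wild-type-normalised replicate fold changes, kanamycin over none.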

Sequence	self-splicing fitness (ln) (30 °C)	self-splicing fitness (ln) (37 °C)
GUCUAGCAAUAUUACGCUUU	-0.366 ± 0.066	-0.192 ± 0.08
GUCUAGCAAUAUUACGGAUG	-1.93 ± 0.2	0.0916 ± 0.19
GUCUAGCAAUAUUACGGGAU	-4.48 ± 0.42	-3.39 ± 0.42
GUCUAGCAAUAUUACGGUGU	-0.578 ± 0.046	-0.0594 ± 0.06
GUCUAGCAAUAUUACGUAGG	-0.837 ± 0.14	-0.942 ± 0.21
GUCUAGCAAUAUUACGUCCG	-2.96 ± 0.28	-0.525 ± 0.19
GUCUAGCAAUAUUACGUCGA	-2.12 ± 0.14	-0.957 ± 0.13
GUCUAGCAAUAUUACGUUUU	-1.2 ± 0.08	-0.759 ± 0.084
GUGAAGCAAUAUUACGACCA	-0.647 ± 0.18	0.84 ± 0.19
GUGAAGCAAUAUUACGAGUG	-0.702 ± 0.094	-0.702 ± 0.13
GUGAAGCAAUAUUACGAGUU	-2.5 ± 0.12	-1.14 ± 0.15
GUGAAGCAAUAUUACGAUCG	-0.499 ± 0.097	0.218 ± 0.1
GUGAAGCAAUAUUACGCAAG	-0.985 ± 0.09	0.0285 ± 0.1
GUGAAGCAAUAUUACGCAUG	-1.5 ± 0.15	-1.23 ± 0.18
GUGAAGCAAUAUUACGCGAA	-1.56 ± 0.11	-0.479 ± 0.12
GUGAAGCAAUAUUACGCGCU	-2.31 ± 0.16	-1.47 ± 0.13
GUGAAGCAAUAUUACGGAAG	-1.94 ± 0.19	0.825 ± 0.21
GUGAAGCAAUAUUACGGAGC	-4.68 ± 0.46	-1.38 ± 0.16
GUGAAGCAAUAUUACGGCUA	-0.323 ± 0.1	0.322 ± 0.12

Sequence	self-splicing fitness (ln) (30 °C)	self-splicing fitness (ln) (37 °C)
GUGAAGCAAUAUUACGUAUU	-1.21 ± 0.12	0.0695 ± 0.12
GUGAAGCAAUAUUACGUCAA	-1.07 ± 0.077	-0.245 ± 0.084
GUGAAGCAAUAUUACGUCAG	-0.462 ± 0.076	-0.996 ± 0.08
GUGAAGCAAUAUUACGUCGU	-0.585 ± 0.11	-0.777 ± 0.12
GUGAAGCAAUAUUACGUGAU	-1.97 ± 0.12	-1.03 ± 0.14
GUGAAGCAAUAUUACGUGCU	-1.99 ± 0.091	-0.974 ± 0.1
GUGAAGCAAUAUUACGUGGA	-3.07 ± 0.13	-1.24 ± 0.15
GUGAAGCAAUAUUACGUGUU	-2.74 ± 0.1	-1.23 ± 0.085
GUGAAGCAAUAUUACGUUCG	-0.236 ± 0.095	-0.797 ± 0.1
GUGCAGCAAUAUUACGACGG	–	-2.73 ± 0.34
GUGCAGCAAUAUUACGAGCC	-1.65 ± 0.2	–
GUGCAGCAAUAUUACGCAGG	-2.59 ± 0.12	-3.12 ± 0.18
GUGCAGCAAUAUUACGCGCU	-3.16 ± 0.48	-1.77 ± 0.36
GUGCAGCAAUAUUACGCUCA	-1.31 ± 0.1	-0.388 ± 0.11
GUGCAGCAAUAUUACGCUGC	-2.77 ± 0.18	-2.14 ± 0.35
GUGCAGCAAUAUUACGGACU	-1.28 ± 0.11	-0.884 ± 0.14
GUGCAGCAAUAUUACGGAUA	-1.76 ± 0.15	-1.79 ± 0.19
GUGCAGCAAUAUUACGGCUC	-0.0701 ± 0.085	-0.129 ± 0.1
GUGCAGCAAUAUUACGGGAU	-1.66 ± 0.066	-1.32 ± 0.081
